The results in this text go back to publication doi:10.1101/2021.09.13.460076.

This assay has as its target ADDomer-SpyTag (ADD-ST) particle (human adenovirus type 3). The assay is described as follows: covalent adduct on SDS-PAGE.

Consider SpyCatcher (SC) (designed binder), for which the stoichiometry N (copies per particle) was determined as 60.
